B1: activin B: activin B, 100 ng/ml, substituted for activin A for induction of endoderm (protein, UniProt P09529 293-407, looked up)
Inhibin beta B chain: GLECDGRTNLCCRQQFFIDFRLIGWNDWIIAPTGYYGNYCEGSCPAYLAGVPGSASSFHTAVVNQYRMRGLNPGTVNSCCIPTKLSTMSMLYFDDEYNIVKRDVPNMIVEECGCA
modifications: Inhibin beta B chain
B2: Activin A: TGF-beta family member used at 100 ng/ml to induce definitive endoderm (protein, UniProt P08476 311-426, looked up)
Inhibin beta A chain: GLECDGKVNICCKKQFFVSFKDIGWNDWIIAPSGYHANYCEGECPSHIAGTSGSSLSFHSTVINHYRMRGHSPFANLKSCCVPTKLRPMSMLYYDDGQNIIKKDIQNMIVEECGCS
modifications: Inhibin beta A chain
notes: TGF-beta family member used at 100 ng/ml to induce definitive endoderm

Assays:
hESC line SA002 = assay: Real-time PCR after exposure to activin A or activin B; format: cell-based, human; details: 100 ng/ml, 5 ng/ml bFGF, 5 days
Experimental: Undifferentiated hESC line SA002 were exposed to either activin A (100 ng/ml) or activin B (100 ng/ml) in the presence of 5 ng/ml bFGF for 5 days and analyzed for gene expression.
mRNA expression of Foxa2, Sox17, CXCR4, Sox7, CDX2, AAT was measured by real-time PCR using the ABI/TaqMan method. In short, RNA was isolated from the cell cultures by using Qiagen's RNeasy system. cDNA was synthesized by using the ABI high capacity cDNA synthesis kit. RT-PCR was performed in a ABI 7500 by using TaqMan probe. The expression level was normalized to CREBBP expression.

hBS cells = assay: Sox17/Sox7 immunostaining of Activin A treated hBS cell cultures; format: cell-based, human; details: after 4 days in Activin A; of the remaining cells
From the text: We used Activin A, and Activin A in combination with Wnt3a and/or FGF2 to generate DE. After 4 to 5 days in Stage I the hBS cell colony differentiated and genetic markers for early DE were examined using quantitative real-time real time-PCR (Q-PCR). Activin A induced a strong wave of early endoderm at day 3 to 5, and was highlighted by high expression levels of Sox17, HNF3beta (HNF3b or HNF3b) and Cxcr4 expression (FIG. 4) and then reduced to near baseline levels (data not shown). […] Furthermore they up regulate early liver markers like AFP or AAT. At this early stage in differentiation and development, this indicates the presence of extraembryonic endoderm (ExE) in intrinsically differentiating colonies (FIGS. 5 and 10). The expression data were confirmed by co-staining of Sox17/Sox7, Sox17/Cxcr4, Sox17/Oct4, Sox7/HNF3b (data not shown). […] The changes of gene expression after Activin A treatment were associated to morphological changes and distinct differentiation pattern of the colonies (FIG. 2). After 4 to 5 days induction with Activin A containing medium cells gathered together and formed a ring of epithelial cells around the colony. […]
Activin A induces definitive endoderm detected by a combination of Sox17+/Sox7−, 80-90% of the total cells in a Activin A or Activin A/FGF2 treated culture are estimated to be Sox17 positive and negative for Sox7 (manual counting in microscope). […]

Molecule | mRNA expression of endodermal markers Foxa2, Sox17 and CXCR4 compared to activin A (hESC line SA002) | mRNA expression of extraembryonal markers Sox7, CDX2 and AAT compared to activin A (hESC line SA002) | Sox17 positive cells (hBS cells)
B1 | either the same or even higher | the same or lower | –
B2 | – | – | more than 70%

From patent publication US20100190202A1, “NOVEL POPULATION OF HEPATOCYTES DERIVED VIA DEFINITIVE ENDODERM (DE-HEP) FROM HUMAN BLASTOCYSTS STEM CELLS” (Cellartis AB, priority 2007, published 2010)
